Test results: publication doi:10.1101/2020.07.22.215871

Target: T1, Tb927.11.16120-His (r16120) (Trypanosoma brucei, UniProt Q381H4 1-610)
T1 sequence: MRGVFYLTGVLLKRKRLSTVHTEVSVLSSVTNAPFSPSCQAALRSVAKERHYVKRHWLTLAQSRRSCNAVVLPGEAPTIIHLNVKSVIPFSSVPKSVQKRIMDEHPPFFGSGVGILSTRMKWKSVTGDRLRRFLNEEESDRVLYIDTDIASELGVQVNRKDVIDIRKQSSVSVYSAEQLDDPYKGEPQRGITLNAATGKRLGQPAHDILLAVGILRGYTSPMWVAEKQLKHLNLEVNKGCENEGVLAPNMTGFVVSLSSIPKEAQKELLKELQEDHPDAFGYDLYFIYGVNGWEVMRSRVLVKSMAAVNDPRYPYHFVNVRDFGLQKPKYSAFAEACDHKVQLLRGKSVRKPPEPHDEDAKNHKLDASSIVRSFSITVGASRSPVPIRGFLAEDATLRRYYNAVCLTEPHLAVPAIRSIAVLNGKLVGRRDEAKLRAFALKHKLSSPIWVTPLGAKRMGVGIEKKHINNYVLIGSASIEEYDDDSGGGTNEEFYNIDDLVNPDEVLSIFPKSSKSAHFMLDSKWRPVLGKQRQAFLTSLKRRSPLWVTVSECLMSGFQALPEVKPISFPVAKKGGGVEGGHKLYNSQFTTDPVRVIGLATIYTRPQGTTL
Test: EMSA

B1: 73 bp conserved minicircle sequence (dsDNA)
DNA 1: GAAAAAACGGAAAATCTTATGGGCGTGCAAAAATACACATACACAAATCCCGTGCTTATTTTAGGCCATTTTT
DNA 2: AAAAATGGCCTAAAATAAGCACGGGATTTGTGTATGTGTATTTTTGCACGCCCATAAGATTTTCCGTTTTTTC
binding result: binds
